Data on six molecules can be found in US20260217813A1 (published 2026).

The target of assay [1] is T1, IL-12 (Human IL12 (His Tag)), Sino Biological Cat. No. CT-050-H08H-20 (human, UniProt P29460 23-328; P29459 23-219).
T1 construct: Bought His-tagged p35/p40 heterodimer
T1 sequence (looked up) 1: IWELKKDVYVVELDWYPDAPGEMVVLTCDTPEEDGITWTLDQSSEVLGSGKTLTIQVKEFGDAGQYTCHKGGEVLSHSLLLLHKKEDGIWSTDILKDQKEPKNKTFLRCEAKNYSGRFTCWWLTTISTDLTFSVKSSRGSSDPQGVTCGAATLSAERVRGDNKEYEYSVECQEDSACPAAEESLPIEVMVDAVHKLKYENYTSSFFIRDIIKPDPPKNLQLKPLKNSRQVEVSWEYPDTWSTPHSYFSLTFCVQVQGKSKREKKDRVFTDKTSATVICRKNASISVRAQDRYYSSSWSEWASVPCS
T1 sequence (looked up) 2: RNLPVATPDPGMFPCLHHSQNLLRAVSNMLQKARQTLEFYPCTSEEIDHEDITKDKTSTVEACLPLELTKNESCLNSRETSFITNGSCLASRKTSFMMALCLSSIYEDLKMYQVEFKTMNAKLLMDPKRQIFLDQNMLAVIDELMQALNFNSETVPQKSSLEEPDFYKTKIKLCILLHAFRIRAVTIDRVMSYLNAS
Description: FACS competition, IL-12-His 20 nM on 293T-IL-12RB1&IL-23R cells, antibody 10 µg/mL. The procedure: (§1) 200 μL of 1% PBSA was added into each sample, and the mixture was centrifuged at 700×g for 5 min to discard the supernatant. According to experiment design, correspondingly diluted antibody (highest final concentration of 30 μg/mL, 3-fold dilution, 8 concentrations in total) and human IL-12 (Sino Biological, Cat. No.: CT-050-H08H-20) (final concentration of 20 nM) were mixed at a ratio of 1:1, and a blank control was set. The mixture of antibody and human IL12 was incubated on ice for 30 min and then added to the cell precipitate at 100 μL/sample. The resulting mixture was well mixed and incubated on ice for 60 min. 200 μL of 1% PBSA was added, and the mixture was centrifuged at 700×g for 5 min to discard the supernatant, and then washed twice. Alexa Fluor® 488 anti-His tag antibody (Biolegend, Cat. No.: 652509) was diluted at a ratio of 1:400 and added to each tube at 100 μL. The mixture was well mixed and incubated on ice for 40 min in the absence of light. 200 μL of 1% PBSA was added, and the mixture was centrifuged at 700×g for 5 min to discard the supernatant, and then washed twice. 1% PBSA was added at 200 μL/tube, and the cells were resuspended and transferred to a flow cytometry tube for testing.

For assay [2], the target named is T1, IL-12 (Human IL12 (His Tag)), Sino …. Description: FACS competition, IL-12-His 20 nM on 293T-IL-12RB1&IL-23R cells, antibody 30 µg/mL. The procedure: as §1
Assay [3] shares this target. Description: FACS competition, IL-12-His 20 nM on 293T-IL-12RB1&IL-23R cells, antibody 0.37 µg/mL. The procedure:
as §1

The target is the same in assay [4]. In words: FACS competition, IL-12-His 20 nM on 293T-IL-12RB1&IL-23R cells, antibody 1.11 µg/mL. The procedure: as §1
Assay [5] has the same target. Description: FACS competition, IL-12-His 20 nM on 293T-IL-12RB1&IL-23R cells, antibody 3.33 µg/mL. The procedure: as §1
Assay [6] deals with T2, human IL-23 (IL-23-His-Biotin, Akesobio, 20161209) (human, UniProt Q9NPF7 20-189; P29460 23-328).
T2 construct: His-tagged and biotinylated; also called human IL23-His-Biotin
T2 sequence (looked up) 1: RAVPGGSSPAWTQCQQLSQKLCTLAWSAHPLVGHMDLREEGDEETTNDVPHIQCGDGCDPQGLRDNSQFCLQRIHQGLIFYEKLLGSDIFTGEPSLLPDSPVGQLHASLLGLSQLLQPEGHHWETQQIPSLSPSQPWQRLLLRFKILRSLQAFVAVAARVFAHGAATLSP
T2 sequence (looked up) 2: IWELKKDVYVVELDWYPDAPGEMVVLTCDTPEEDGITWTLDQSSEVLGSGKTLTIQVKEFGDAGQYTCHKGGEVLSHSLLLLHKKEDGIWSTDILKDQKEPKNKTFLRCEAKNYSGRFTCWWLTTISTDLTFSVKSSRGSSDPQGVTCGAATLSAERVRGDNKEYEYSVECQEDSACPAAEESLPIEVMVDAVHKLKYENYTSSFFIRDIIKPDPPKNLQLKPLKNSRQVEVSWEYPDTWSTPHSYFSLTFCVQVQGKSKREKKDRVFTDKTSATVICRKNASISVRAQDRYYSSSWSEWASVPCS
Description: FACS competition, IL-23-His-Biotin 2 µg/mL on 293T-IL-12RB1&IL-23R cells, antibody 0.01 µg/mL. The procedure: (§2) 2.1. […] 200 μL of 1% PBSA was added into each sample, and the mixture was centrifuged at 700×g for 5 min to discard the supernatant. According to experiment design, correspondingly diluted antibody (highest final concentration of 30 μg/mL, 3-fold dilution, 8 concentrations in total) and human IL-23 (IL-23-His-Biotin, Akesobio, 20161209) (final concentration of 2 μg/mL) were mixed at a ratio of 1:1, and a blank control was set. The mixture of antibody and human IL23 was incubated on ice for 30 min and then added to the cell precipitate at 100 μL/sample. The resulting mixture was well mixed and incubated on ice for 60 min. 200 μL of 1% PBSA was added, and the mixture was centrifuged at 700×g for 5 min to discard the supernatant, and then washed twice. FITC Streptavidin (Biolegend, Cat. No.: 405202) was diluted at a ratio of 1:500 and added to each tube at 100 μL. The mixture was well mixed and incubated on ice for 40 min in the absence of light. 200 μL of 1% PBSA was added, and the mixture was centrifuged at 700×g for 5 min to discard the supernatant, and then washed twice. 1% PBSA was added at 200 μL/tube, and the cells were resuspended and transferred to a flow cytometry tube for testing.

For assay [7], the target named is T2, human IL-23 (IL-23-His-Biotin, …). Description: FACS competition, IL-23-His-Biotin 2 µg/mL on 293T-IL-12RB1&IL-23R cells, antibody 1.11 µg/mL. The procedure:
as §2

For assay [8] the target is unchanged. In words: FACS competition, IL-23-His-Biotin 2 µg/mL on 293T-IL-12RB1&IL-23R cells, antibody 3.33 µg/mL. The procedure: as §2

B1: H5L9 (antibody, human IgG1, kappa, V domains shown)
VH: EVQLVQSGAEVKKPGESLKISCQSSGYSFTTYWIGWVRQMPGQGLEWIGIMSPVDSDIRYNPMFRGQVTMSVDKSSSTAYLQWSSLKASDTAMYYCARRRPGQGYFDFWGQGTMVTVSS
VL: DIQMTQSPSSLSASVGDRVTITCKASQNVGSWLAWYQQKPGKAPKSLIYSASSRQSGVPSRFSGSGSGTDFTLTISSLQPEDFATYYCQQYDIYPFTFGQGTKLEIKR
notes: Humanized anti-human IL-12/IL-23 p40 antibody; IgG1 (P01857) / kappa (P01834) constant regions
Take B1: the MFI in assay [1] was found to be 134; in assay [2], 117; in assay [3] it was 159; in assay [4], 157; in assay [5], 146; in assay [6], 222. Besides, the MFI in assay [7] is 184; in assay [8], 153.

B2: H5L10 (antibody, human IgG1, kappa, V domains shown)
VH: EVQLVQSGAEVKKPGESLKISCQSSGYSFTTYWIGWVRQMPGQGLEWIGIMSPVDSDIRYNPMFRGQVTMSVDKSSSTAYLQWSSLKASDTAMYYCARRRPGQGYFDFWGQGTMVTVSS
VL: EIVLTQSPATLSASPGERATISCRASQSVGSWLAWYQQKPGQAPRSLIYAASNLQSGIPARFSGSGSGTDFTLTISSLEPEDFAVYYCQQYNIYPYTFGQGTRLEIKR
notes: IgG1/kappa
With B2, the MFI in assay [1] worked out at 34.1; in assay [2], 31.6; in assay [3] it was 87.5; in assay [4] it was 44.6; in assay [5], 40.2; in assay [6], 223. Moreover, the MFI in assay [7] was 81.6; in assay [8] it was 15.7.

B3: H5L12 (antibody, human IgG1, kappa, V domains shown)
VH: EVQLVQSGAEVKKPGESLKISCQSSGYSFTTYWIGWVRQMPGQGLEWIGIMSPVDSDIRYNPMFRGQVTMSVDKSSSTAYLQWSSLKASDTAMYYCARRRPGQGYFDFWGQGTMVTVSS
VL: EIVLTQSPATLSASPGERATISCRASQSVSSWLAWYQQKPGQAPRSLIYAASNRQSGIPARFSGSGSGTDFTLTISSLEPEDFAVYYCQQYNIYPYTFGQGTRLEIKR
notes: IgG1/kappa
As to B3, the MFI amounted to 32.4 in assay [1]; 31.8 in assay [2]; 86.6 in assay [3]; 38.5 in assay [4]; 31.8 in assay [5]; 221 in assay [6]. Also, the MFI was 88.5 in assay [7] and 15.8 in assay [8].

B4: H5L11 (antibody, human IgG1, kappa, V domains shown)
VH: EVQLVQSGAEVKKPGESLKISCQSSGYSFTTYWIGWVRQMPGQGLEWIGIMSPVDSDIRYNPMFRGQVTMSVDKSSSTAYLQWSSLKASDTAMYYCARRRPGQGYFDFWGQGTMVTVSS
VL: EIVLTQSPATLSASPGERATISCRASQSVSSWLAWYQQKPGQAPRSLIYSASNLQSGIPARFSGSGSGTDFTLTISSLEPEDFAVYYCQQYNIYPYTFGQGTRLEIKR
notes: IgG1/kappa
As for B4, the MFI in assay [1] was determined as 33.9; in assay [2], 33; in assay [3], 103; in assay [4], 54.3; in assay [5] it was 42.2; in assay [6], 219. In addition, the values for the MFI in assay [7] and in assay [8] were 97.6 and 20.2, respectively.

B5: H5L14 (antibody, human IgG1, kappa, V domains shown)
VH: EVQLVQSGAEVKKPGESLKISCQSSGYSFTTYWIGWVRQMPGQGLEWIGIMSPVDSDIRYNPMFRGQVTMSVDKSSSTAYLQWSSLKASDTAMYYCARRRPGQGYFDFWGQGTMVTVSS
VL: EIVLTQSPATLSASPGERATISCRASQSVSSWLAWYQQKPGQAPRSLIYAASNLQSGIPARFSGSGSGTDFTLTISSLEPEDFAVYYCQQYNIYPFTFGQGTRLEIKR
notes: IgG1/kappa
Turning to B5, the MFI in assay [1] was 46.3; in assay [2] it was 34.9; in assay [3], 113; in assay [4] it was 66; in assay [5] it was 51.9; in assay [6], 218. For the same molecule, the MFI in assay [7] is 95.6; in assay [8] it was 23.6.

B6: ustekinumab (trade name Stelara) (antibody, V domains shown)
VH: EVQLVQSGAEVKKPGESLKISCKGSGYSFTTYWLGWVRQMPGKGLDWIGIMSPVDSDIRYSPSFQGQVTMSVDKSITTAYLQWNSLKASDTAMYYCARRRPGQGYFDFWGQGTLVTVSS
VL: DIQMTQSPSSLSASVGDRVTITCRASQGISSWLAWYQQKPEKAPKSLIYAASSLQSGVPSRFSGSGSGTDFTLTISSLQPEDFATYYCQQYNIYPYTFGQGTKLEIK
Consider B6, for which the MFI is 31 in assay [1]; 28.7 in assay [2]; 95.7 in assay [3]; 31.9 in assay [4]; 29.7 in assay [5]; 219 in assay [6]. The MFI is 121 in assay [7] and 13.8 in assay [8].
